± gives the standard deviation of the averaged measurements.
These sequences were tested on ATP (assay: switch fluorescence ratio, 500 uM ATP over buffer (Cy3 cluster intensity, sum of 5 cycles each) (fold (ratio)); higher = stronger signal-on switching upon ATP binding; sequences stand for … in TCGTCGGCAGCGTCAGATGTGTATAAGAGACAGTTTTTTTTTTTTTTTTTTTTTTTTT…TC). Conditions: aptamer strand: ATP DNA aptamer (quencher-CACCTGGGGGAGTATTGCGGAGGAAGG + anchor), 100 nM annealed; ATP concentration: 500 uM.
How it was run: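 Exposure to 500 uM ATP lasted 15 min at 22 °C before imaging, and a selection-buffer image was taken beforehand, for Cy3-labelled switching-strand clusters on a modified Illumina MiSeq flow-cell annealed to 100 nM quencher-labelled ATP aptamer. Five buffer/ATP cycles were run with NaOH stripping and re-annealing between them. The fluorescence ratio per cluster is summed target-cycle over summed buffer-cycle Cy3 intensity, averaged per switch-domain sequence. Clusters outside 100-1000 RFU were excluded.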

Point of comparison: AATAGGGGAC, switch fluorescence ratio 1.01 ± 0.016. Against it:
- GGGGTACGCG — within error, 0.984 ± 0.024
- ATCCTAGTGT — within error, 1.04 ± 0.052
- CATAGTCCTC — within error, 0.964 ± 0.041
- TAGGATTCTC — within error, 0.979 ± 0.023
- ATATTAGATT — within error, 1.019 ± 0.0076
- TACTTTCCCG — higher, 1.29 ± 0.13
- GCGTCTGGGC — within error, 0.992 ± 0.015
- GCCGGGATGC — within error, 1.1 ± 0.11
- CGTTTAATGG — lower, 0.984 ± 0.0086
- TTGGGCGCAG — lower, 0.967 ± 0.019
- TAAAAAGACG — within error, 1.04 ± 0.075
- CTGGACAGTA — the same, 1.01 ± 0.027
- GGGAGTCTTG — within error, 0.987 ± 0.015
- TCTATGGCTA — within error, 1.03 ± 0.03
- GGTAGAAAGG — within error, 1.03 ± 0.093
- GAGGTTAATA — within error, 1.04 ± 0.021
- AAGAGTTAGG — within error, 0.966 ± 0.031
- GGAAAAGAGA — the same, 1.01 ± 0.017
- GTTGCTAGTG — within error, 0.973 ± 0.024
- TTAGCCACGC — lower, 0.9902 ± 0.0029
- TATAATCGTG — within error, 0.988 ± 0.021
- TATGAGAAGC — within error, 1 ± 0.017
- ATTTTGTTCG — higher, 1.04 ± 0.011
- CTGTCATGGG — within error, 0.9952 ± 0.0063
- TAAGGTGATG — the same, 1.01 ± 0.046
- GGAGAGAAGC — within error, 1.02 ± 0.076
- TCTATAATGT — lower, 0.965 ± 0.025
- TAATGATTTT — within error, 0.967 ± 0.031
- GAGGCTGGGC — within error, 0.973 ± 0.053
- TCGAAACGGG — within error, 1.14 ± 0.24
- TCTGTGGTGT — higher, 1.026 ± 0.0028
- GCAGTCTTTG — within error, 0.9936 ± 0.0046
- GATATCAGGG — within error, 0.978 ± 0.037
- AGAGAAGGTC — within error, 1.017 ± 0.0086
- TTAAGTAGTA — lower, 0.9679 ± 0.0025
- GAGGGAGGGA — within error, 1.03 ± 0.059
- ATGGAAGGTT — within error, 0.991 ± 0.033
- TATAGATGTG — the same, 1.013 ± 0.0024
- AGCTGGGGTT — within error, 0.9962 ± 0.0062
- TGTTGTATTT — the same, 1.01 ± 0.022
- CGCTACTGTT — higher, 1.079 ± 0.0014
- TACGGCTAAG — within error, 1.07 ± 0.047
- TGAATGTAGC — lower, 0.9781 ± 0.0024
- GGCGGCCGGA — within error, 1.002 ± 0.0084
- CGGGATGGCC — within error, 1 ± 0.018
- GAGAGTGGCA — within error, 0.988 ± 0.031
- AGGTGGTTTT — the same, 1.014 ± 0.0041
- TTTATCAGCT — within error, 0.9985 ± 0.0065
- CAGTTTACGT — within error, 0.983 ± 0.023
- CTCGAAGTTG — lower, 0.9692 ± 0.0025
- CTTATCAATT — within error, 1 ± 0.018
- GGGTTTTAGT — the same, 1.01 ± 0.029
- GAAGCTTGGT — within error, 0.972 ± 0.041
- GGGGACATAA — within error, 0.997 ± 0.011
- TTCAAGGTGC — higher, 1.4 ± 0.069
- TGAGTGCAAA — within error, 0.9933 ± 0.0023
- AATATCACGG — within error, 1.05 ± 0.029
- TCGAAGGGTG — within error, 0.999 ± 0.04
- TTACGTGGTT — higher, 1.07 ± 0.026
- TTGGCATCAC — within error, 1.06 ± 0.045
- TAATGTGTGT — within error, 1.016 ± 0.0091
- TTTTTAGAG — within error, 0.999 ± 0.021
- TTAAGTGAAT — within error, 0.979 ± 0.066
- GAGGCTGGGA — within error, 0.988 ± 0.032
- CGTATCATGC — within error, 0.985 ± 0.011
- TCGGGAGAAT — the same, 1.01 ± 0.015
- GATGCGCCGG — within error, 1.03 ± 0.034
- AATATGTATG — within error, 0.996 ± 0.024
- ATGTGAAGAG — within error, 0.9952 ± 0.003
- ACATGGCATC — within error, 1.05 ± 0.046
- GACAGGGGAG — within error, 1 ± 0.018
- GGGCGCCCCA — lower, 0.976 ± 0.013
- GACACTTGGA — within error, 1.03 ± 0.014
- CGAAGCTAGG — higher, 2.16 ± 0.21
- ATAATGGGGG — within error, 0.977 ± 0.027
- CGTTTCTAAG — within error, 0.967 ± 0.03
- GTTTGTTACT — within error, 0.964 ± 0.052
- TGGTTGATGA — within error, 0.98 ± 0.064
- GCAGTCTGGT — lower, 0.98106 ± 0.00091
- TGAAAATGGT — within error, 0.996 ± 0.015
- TACTTGAGGC — within error, 1.11 ± 0.21
- TGTGACAATA — higher, 1.04 ± 0.01
- ATGCTCAGTT — lower, 0.9836 ± 0.0062
- CAAGTTGAAA — lower, 0.9693 ± 0.0034
